Test results reported in patent US20020002269A1, “ARTEMIN, A NEUROTROPHIC FACTOR” (priority 1998, published 2002).

Experiments:
[1] = target: recombinant human artemin protein (human); assay: plate binding assay: ligand coated, soluble receptor body titrated, anti-human Fc-HRP, A450; apparent Kd
[2] = target: recombinant neurturin (human mature amino acid sequence) (human); assay: as above
[3] = target: recombinant GDNF (human mature amino acid sequence) (human); assay: as above
[4] = tested on: SH-SY5Y neuroblastoma cell line; assay: Differentiation of SH-SY5Y neuroblastoma cells; format: cell-based; conditions: 10 μM, three days after factor addition, FIG. 8B
Description: In one experiment, cells from the SH-SY5Y neuroblastoma cell line were plated at 2×10^5 cells/ml/well in 12-well tissue culture plates. After one day in culture cells were either left untreated (Cn) or stimulated with 50 ng/ml artemin (ART) or 10 μM retinoic acid (RA), a known inducer of differentiation of SH-SYSY cells. Three days after factor addition, differentiation was assessed and cells were photographed.

[5] = tested on: trigeminal ganglion (TG) neurons; assay: Survival of cultured trigeminal ganglion neurons; format: cell-based, rat; conditions: 50 ng/ml, 3 days in vitro, FIG. 7C
Description: (§1) Each GDNF ligand family member consisted of the human mature amino acid sequence and was produced by standard recombinant DNA methods. Recombinant GDNF, neurturin and persephin were obtained from Genentech while recombinant artemin was produced as described in Example 3.
(§2) The cultures were performed using standard methods described elsewhere (Kotzbauer et al., Neuron 12:763-773, 1994; Kotzbauer et al., Nature 384:467-470, 1996; Milbrandt et al., Neuron 20:245-253, 1998). In brief, for SCG neurons, after dissection and dissociation, neurons were plated on collagen-coated 24-well tissue culture plates and maintained in NGF-containing medium (AM50) for 5 days, after which they were either kept in AM50 or switched to medium containing neutralizing anti-NGF antibodies plus GDNF, neurturin, persephin, artemin, (50 ng/ml where not noted otherwise), or no growth factors. Cultures were maintained for 3 days, after which they were fixed in 4% paraformaldehyde and stained with toluidine blue, and surviving neurons were counted. For nodose ganglion and dorsal root ganglion neuron cultures, dissociated neurons were plated directly into NGF (for dorsal root ganglia), or BDNF (for nodose ganglia, 100 ng/ml) or one of the GDNF ligands in serum-containing medium (AM50 with anti-NGF antibodies), and cells surviving after 3 days in culture were counted as above. Trigeminal ganglia were dissected, dissociated, and plated directly into medium containing NGF or the indicated GDNF ligands, and the number of surviving cells was assessed after 3 days in vitro. For all culture systems, 2-3 independent experiments were performed.

[6] = tested on: CHP134 neuroblastoma cell line; assay: Responsiveness of a neuroblastoma cell line that does not express RET (CHP134); format: cell-based; conditions: data not shown
[7] = tested on: nodose ganglion (NG) neurons; assay: Survival of cultured nodose ganglion neurons; format: cell-based, rat; conditions: FIG. 7D
Description: as §1, §2

GFRα2-Fc = assay: Direct binding of soluble GFRα2-Fc receptor body to plate-coated ligand; conditions: ligand coated at 325 ng/ml, absence of RET, FIG. 9D
Description: To investigate which if any of the known coreceptor(s) artemin can utilize to activate RET, its ability to directly bind to soluble Fc-fusion forms of GFRα1, GFRα2, or GFRα3 was assessed. GFRα1-Fc, GFRα2-Fc and GFRα3-Fc fusion proteins were obtained from R&D Systems. Binding assays were performed similarly to assays previously described (Sanicola et al., Proc. Natl. Acad. Sci., USA 94:6238-6243, 1997). Recombinant GDNF, neurturin, artemin, persephin, or purified bovine serum albumin (BSA; Pierce) were coated to Nunc-Immuno MaxiSorp microtiter plates at 325 ng/ml in TBS (10 mM Tris-HCl pH 7.5, 150 mM NaCl) for 1 hour at 25° C. Plates were washed (3× in TBS/0.03% Tween-20), and then blocked (blocking solution: TBS/1% BSA) for 1 hr at 25° C. Receptor bodies diluted in blocking solution were added and incubated for 2 hr at 25° C., washed 5X, then incubated with 1:10,000 dilution of HRP-conjugated anti-human Fc antibodies in blocking solution (Jackson Immunoresearch) for 45 minutes at 25° C. […] The reaction was stopped by adding an equal volume of 0.5M H2SO4, and color was measured in a plate reader at 450 nm. Non-specific binding of receptor bodies to the plates was measured in BSA coated wells, and this binding was subtracted from all other measurements.

[8] = tested on: CHP126 neuroblastoma cell line; assay: Responsiveness of a neuroblastoma cell line that does not express RET (CHP126); format: cell-based; conditions: data not shown
[9] = tested on: SAN neuroblastoma cell line; assay: Responsiveness of a neuroblastoma cell line that does not express RET (SAN); format: cell-based; conditions: data not shown
[10] = tested on: dorsal root ganglion (DRG) neurons; assay: Survival of cultured dorsal root ganglion neurons; format: cell-based, rat; conditions: 50 ng/ml, 3 days in culture, FIG. 7A
Description: as §1, §2

GFRα1-Fc = assay: Direct binding of soluble GFRα1-Fc receptor body to plate-coated ligand; conditions: ligand coated at 325 ng/ml, absence of RET, FIG. 9C
Description: To investigate which if any of the known coreceptor(s) artemin can utilize to activate RET, its ability to directly bind to soluble Fc-fusion forms of GFRα1, GFRα2, or GFRα3 was assessed. GFRα1-Fc, GFRα2-Fc and GFRα3-Fc fusion proteins were obtained from R&D Systems. Binding assays were performed similarly to assays previously described (Sanicola et al., Proc. Natl. Acad. Sci., USA 94:6238-6243, 1997). Recombinant GDNF, neurturin, artemin, persephin, or purified bovine serum albumin (BSA; Pierce) were coated to Nunc-Immuno MaxiSorp microtiter plates at 325 ng/ml in TBS (10 mM Tris-HCl pH 7.5, 150 mM NaCl) for 1 hour at 25° C. Plates were washed (3× in TBS/0.03% Tween-20), and then blocked (blocking solution: TBS/1% BSA) for 1 hr at 25° C. Receptor bodies diluted in blocking solution were added and incubated for 2 hr at 25° C., washed 5X, then incubated with 1:10,000 dilution of HRP-conjugated anti-human Fc antibodies in blocking solution (Jackson Immunoresearch) for 45 minutes at 25° C. Finally, wells were washed 5× and the presence of HRP was assayed by addition of the chromogenic substrate 3,3, 5,5-tetramethylbenzidine for 5 min. The reaction was stopped by adding an equal volume of 0.5M H2SO4, and color was measured in a plate reader at 450 nm. Non-specific binding of receptor bodies to the plates was measured in BSA coated wells, and this binding was subtracted from all other measurements.

[11] = tested on: NBL-S neuroblastoma cell line; assay: BrdU cell proliferation assay in NBL-S neuroblastoma cells; format: cell-based; conditions: 50 ng/mL, 30 hrs after factor addition, FIG. 8D
Description: In another experiment, the ability of artemin to induce proliferation of the NBL-S neuroblastoma cell line was examined. NBL-S cells were plated at 5×10^4 cells/well on 48-well plates in standard medium, either without treatment or in the presence of 50 ng/mL of GDNF, artemin, or persephin. Actively dividing cells undergoing DNA synthesis 30 hrs after factor addition were detected using the BrdU (colorimetric) cell proliferation assay kit according to the manufacturer's instructions (Boehringer-Mannheim) and the data are shown in FIG. 8D.

GFRα3-Fc fusion protein
Kd [1]: 3 nM

GFRα2-Fc fusion protein
Kd [2]: 3 nM

GFRα1-Fc fusion protein
Kd [3]: 3 nM
Kd [2]: 3 nM

CC1=C(/C=C/C(C)=C/C=C/C(C)=C/C(=O)O)C(C)(C)CCC1 [retinoic acid, all-trans retinoic acid, reference compound]
differentiation (neurite outgrowth, neuronal morphology) of SH-SY5Y cells [4]: induced strong differentiation responses

B1: neurturin: recombinant human mature neurturin obtained from Genentech (protein, UniProt Q99748 96-197, looked up)
Neurturin: ARLGARPCGLRELEVRVSELGLGYASDETVLFRYCAGACEAAARVYDLGLRRLRQRRRLRRERVRAQPCCRPTAYEDEVSFLDAHSRYHTVHELSARECACV
survival of TG sensory neurons [5]: supported the survival of a subset of sensory neurons
response of CHP134 cells [6]: did not respond
survival of NG neurons ([7]; 50 ng/ml, 3 days in culture): supported similar numbers of NG neurons
survival promotion of NG neurons compared with BDNF ([7]; GDNF family ligands 50 ng/ml, BDNF 100 ng/ml): equal or greater survival promotion than BDNF
direct binding of GFRα2-Fc (GFRα2-Fc): bound to neurturin
response of CHP126 cells [8]: did not respond
response of SAN cells [9]: did not respond
survival of DRG sensory neurons [10]: supported the survival of a subset of sensory neurons
direct binding of GFRα1-Fc (GFRα1-Fc): able to bind to both GDNF and neurturin with similar affinity

B2: persephin: recombinant human mature persephin obtained from Genentech (protein, UniProt O60542 22-156, looked up)
Persephin: WGPDARGVPVADGEFSSEQVAKAGGTWLGTHRPLARLRRALSGPCQLWSLTLSVAELGLGYASEEKVIFRYCAGSCPRGARTQHGLALARLQGQGRAHGGPCCRPTRYTDVAFLDDRHRWQRLPQLSAAACGCGG
proliferation of NBL-S cells (BrdU incorporation) [11]: did not
direct binding of GFRα1-Fc (GFRα1-Fc): not to persephin or artemin
